# Experimental data reported in patent US12084523 (TECHNION RESEARCH AND DEVELOPMENT FOUNDATION, dated 2024).
# Starred links: 1 amine or outer side, 2 acyl side, 3 side chain; linkers in the order of their positions; H or OH if unused. Positions of bridges follow the written chain, without caps; N, C: chain ends. Non-standard residues stand in square brackets, D forms with d. No end group written: not given here. mClBz = N-terminal chlorobenzyl thioether anchor (M*) that cyclises onto the Cys, the meta form of the mClBz/pClBz pair, O=C(c1cccc(C[*:3])c1)[*:2]; code ∗ = not defined here
# Tests used:
# [1] = target: T1, biotin-^K48Ub2 (chemically synthesized K48-linked di-ubiquitin, biotin on the distal Ub) (UniProt P0CG48 1-76, isopeptide bond from the C-terminus of the distal Ub to Lys48 of the proximal Ub; biotin at the N-terminus of the distal Ub); assay: SPR, K48-Ub2
# T1 construct: mature; also called Lys48-linked ubiquitin dimer
# [2] = target: T2, biotin-^K48Ub4 (chemically synthesized K48-linked tetra-ubiquitin, biotin on the distal Ub) (UniProt P0CG48 1-76, isopeptide bonds from the C-terminus of each Ub to Lys48 of the next Ub; biotin at the N-terminus of the distal Ub); assay: SPR (Biacore T100), biotin-Ub chain on the chip, peptide in flow; error 4
# T2 construct: mature; also called Ub tetramer
# [3] = target: T1, biotin-^K48Ub2 (chemically synthesized …); assay: SPR (Biacore T100), biotin-Ub chain on the chip, peptide in flow; error 8
# [4] = target: T2, biotin-^K48Ub4 (chemically synthesized …); assay: SPR (Biacore T100), biotin-Ub chain on the chip, peptide in flow; error 0.002
# [5] = target: T2, biotin-^K48Ub4 (chemically synthesized …); assay: SPR (Biacore T100), biotin-Ub chain on the chip, peptide in flow; error 7.30E+05
# [6] = target: T2, biotin-^K48Ub4 (chemically synthesized …); assay: SPR (Biacore T100), biotin-Ub chain on the chip, peptide in flow; error 7
# [7] = target: T1, biotin-^K48Ub2 (chemically synthesized …); assay: SPR (Biacore T100), biotin-Ub chain on the chip, peptide in flow; error 28
# [8] = target: T1, biotin-^K48Ub2 (chemically synthesized …); assay: SPR, K48-Ub2; remark: listed apart in the source
# [9] = target: T1, biotin-^K48Ub2 (chemically synthesized …); assay: SPR, K48-Ub2; mClBz anchor; wildtype J08, no mutations
Kd [1],Kd [2],Kd [8],Binder,also measured
33 nM,14 nM,–,"WWYDREYYYLGYGCG (position 1 is ClAc-D-Trp (M* of Table 2); macrocycle closed between the N-terminal chloroacetyl group and the Cys, also called U2ii) [Ub2ii cyclic peptide]",Kd [3]: 33 nM
–,–,–,"{code ∗}-[dW]LYLDDSGDWWICG (thioether N-13 (inferred); reading uncertain; also: printed as *WLYLDDSGDWWICG, also called U4ix; Ub4xi) [Ub4ix cyclic peptide]",koff [4]: 0.021 s⁻¹; kon [5]: 3.52e+06 M⁻¹ s⁻¹
90 nM,–,90 nM,"WGWFDDLYLFVAYCG (position 1 is ClAc-D-Trp (M* of Table 2); macrocycle closed between the N-terminal chloroacetyl group and the Cys, also called U4i) [Ub4i cyclic peptide]",Kd [6]: 26 nM; Kd [7]: 91 nM
–,14 nM,–,"{CH2CO}-[dW]GWFDNLYWYVTHCG (thioether N-14, also called U2i) [Ub2i cyclic peptide]",–
10 nM,–,–,"mClBz-GWFDDLYLFVAYCG (bridge N-13; not fully specified (bridges), also called J08 (M* = mClBz)) [J08_mClBz]",Kd [9]: 10 nM
5 nM,–,5 nM,mClBz-GWFDDEYLFVAYCG (bridge N-13; not fully specified (bridges)) [J08_mClBz_L6E],–
